How the values were obtained:
[1] = tested on: human aortic endothelial cells (HAEC); assay: Cell attachment and spreading on VN, HAECs; assay type: cell-based
Protocol: FIG. 2—Human aortic endothelial cells rely on αvβ3 and αvβ5 integrins for spreading on VN. Human aortic endothelial cells (HAECs) were suspended and replated on 10 μg/ml VN in the presence of integrin inhibitory antibodies mAb 13 (specific for β1-containing integrins; this will inhibit the αvβ1 integrin), LM609 (specific for the αvβ3 integrin) and P1F6 (specific for the αvβ5 integrin), or combinations of these mAbs. After 2 hr, the cells were fixed, stained with Alexa488-conjugated phalloidin to aid in visualization, and observed by fluorescence microscopy to document integrin-dependent spreading. Inhibition of spreading requires simultaneous inhibition of both αvβ3 and αvβ5 integrins.
FIG. 3—αvβ3 and αvβ5 integrin-mediated spreading of human aortic endothelial cells on VN is disrupted by recombinant Sdc1 ectodomain fusion protein. HAECs were plated on VN in the presence of no competitor, 1-10 μM GST-mS1ED (recombinant mouse Sdc1 ectodomain expressed as a fusion protein with GST) or GST alone.
FIG. 4—Inhibition of HAEC spreading on VN by silencing of Sdc-1. […]
FIGS. 10A-10D—Dependence of HMEC cell attachment and spreading on integrin activation by Sdc1 and its inhibition by SSTN. […] Sdc1 expression was quantified by flow cytometry using human Sdc1-specific mAb B-B4 or a control mouse IgG. […]

[2] = tested on: syndecan-1 association with the αvβ3 and αvβ5 integrins; assay: Co-immunoprecipitation of β3/β5 integrin with syndecan-1 from HMEC-1 cells; assay type: binding, human; conditions: HMEC-1, 30 μM GST-mS1ED or 1 μM SSTN
Text: FIGS. 8A-8D—SSTN disrupts association of syndecan-1 with the αvβ3 and αvβ5 integrins. (FIG. 8A) Diagram of mouse syndecan-4 (mS4), human syndecan-1 (hS1) and mouse syndecan-1 (mS1) and mS1 deletion mutants showing which proteoglycans are able to activate the αvβ3 and αvβ5 integrins. (FIG. 8B) Flow cytometry of human aortic endothelial cells (HAEC), human dermal microvascular endothelial cells (HMEC-1) or mouse aortic endothelial cells (MAEC) using human or mouse-specific antibodies for syndecan-1, αvβ3, and αvβ5. The β5 subunit is detected by Western blot in mouse cells and is compared to B82L fibroblasts known to express this integrin; (FIG. 8C) Human syndecan-1 is immunoprecipitated from HMEC-1 cells in the presence or absence of 30 μM GST, 30 μM GST-mS1ED (mouse syndecan-1 ectodomain), or 1 μM SSTN and detected on blots along with co-precipitating β3 or β5 integrin. (FIG. 8D) Human syndecan-1 is immunoprecipitated from MDA-MB-231 human mammary carcinoma cells expressing full-length mouse syndecan-1 (F1-mS1), a mouse mutant bearing deletion of amino acids 67-121 (mS1^Δ67-121), or vector alone (NEO) and blotted for the co-precipitation of the αvβ3 integrin by detection of the β3 subunit. […]

B1: S1ED: recombinant mouse Sdc1 ectodomain (amino acids 18-251), expressed in bacteria as GST fusion or 6×His-tagged protein (protein)
chain: QPALPQIVAVNVPPEDQDGSGDDSDNFSGSGTGALPDTLSRQTPSTWKDVWLLTATPTAPEPTSSNTETAFTSVLPAGEKPEEGEPVLHVEAEPGFTARDKEKEVTTRPRETVQLPITQRASTVRVTTAQAAVTSHPHGGMQPGLHETSAPTAPGQPDHQPPRVEGGGTSVIKEVVEDGTANQLPAGEGSGEQDFTFETSGENTAVAAVEPGLRNQPPVDEGATGASQSLLDRK
modifications: left off: a dimerising Fc or GST
notes: recombinant mouse Sdc1 ectodomain (amino acids 18-251), expressed in bacteria as GST fusion or 6×His-tagged protein
For B1, the IC50 ([1]; read-out: IC50, cell spreading on vitronectin) was ~1 µM, the “cell spreading on VN” value ([1]; soluble competitor 1-10 μM (FIG. 3)) was “blocked” and the “co-precipitation of β3 and β5 integrin with human syndecan-1” value [2] was “displace the integrins”.
